Measurements as given in US8071547B2, “Compositions of alpha-fetoprotein and inducers of apoptosis for the treatment of cancer” (Constab Pharmaceutical, Inc., priority 2006, dated 2011).
Read-outs that look alike come from different tables or passages of the source.

Experiments:
cancer cells [1] = test: Comparison of AFP properties: anticancer activity (Table 1); conditions: applicant's studies (Examples 4 to 8)
Description: The present invention involves the use of exogenous alpha-fetoprotein (AFP) acting as a carrier or transporter of apoptosis-inducing agents directly to cancer cells resulting in the apoptosis of the cancer cells. U.S. Pat. Nos. 6,630,445 and 6,534,479 describe the use of recombinant human AFP for conjugation with cytotoxic agents.
(NCBI Blast analysis is available on the world wide web at ncbi.nlm.nih.gov/blast/; Parker, M. H. et al., Protein Expression and Purification, 38:177-183, 2004).

[2] = system: monoclonal antibody to HAFP; test: Membrane EIA Alpha-fetoprotein test; assay type: binding; conditions: compared to human AFP sample
Description: (§1) PAFP extracted by the methods detailed above was analyzed using two different immune-enzyme kits in order to detect the presence of PAFP in the extraction obtained from the methods detailed above. PAFP samples were compared to AFP isolated from human serum and amniotic fluid. Initially, samples were subjected to the membrane EIA Alpha-fetoprotein test (catalog #410-1, IND Diagnostic Inc., Vancouver, Canada) which incorporates a monoclonal antibody to HAFP. […] A second test kit incorporating a polyclonal antibody to HAFP (catalog number T-8456, AFP-EIA-BEST-Strip, Vector-BEST, Novosibirsk, Russia) was then used to assay the presence of PAFP in the extraction.

[3] = system: polyclonal antibody to HAFP; test: AFP-EIA-BEST-Strip test; assay type: binding
Description: as §1

[4] = in the fetus; cited from earlier work
cancer cells [5] = conditions: literature; cited from earlier work

B1: PAFP: porcine alpha-fetoprotein, butanol-extracted from blood and amniotic fluid of embryos of 3 to 14 weeks gestation (protein, UniProt Q8MJ76 19-610, looked up)
Alpha-fetoprotein: RTMHENAYGIASILDSSQCSAEMNLVDLATIFFAQFVQEATYKEVNQMVKDVLTVIEKSTGSEQPAGCLENQVSVFLEEICHEEEIPEKYGLSHCCSQSGEERHNCFLARKKAAPASIPPFQVPEPVTSCKAYEENRELFMTRYIYEIARRHPFLYAPTILSLAAQYDKIIPPCCKAENAVECFQTKAASITKELRESSLLNQHMCTVMRQFGARTFRAITVTKLSQKFPKANFTEIQKLVLDVAHIHEECCRGNVLECLQDAERVVSYVCSQQDTLSSKIAECCKLPTTLELGQCIIHAENDDKPEGLSPNLNRFLGERDFNQLSSREKDLSMARFTYEYSRRHPKLAVPVILRVAKGYQELLEKCSQSENPLECQDKGEEELEKYIQESQALAKRSCGLFQKLGEYYLQNAFLVAYTKKAPQLTPPELMALTRKMATTGAACCHLSEDRQLACGEGAADLIIGQLCIRHEEMPINPGVGQCCTSSYANRRPCFSSLVLDETYVPPPFSDDKFIFHKDLCQAQGVALQTMKQQFLINLVKQKPQITEEQLEAVIADFSGLLEKCCQGQEQEVCFAEEGPALISKTRASLGV
Anticancer activity (AFP-mediated delivery of apoptosis-inducing agent bound to cancer cells) (cancer cells [1]): Yes
Reaction with EIA Alpha-fetoprotein test kit [2]: did not produce a reaction
Reaction with AFP-EIA-BEST-Strip kit [3]: positive reaction

B2: AFP: alpha-fetoprotein, major transport glycoprotein in the fetus (protein, UniProt P02771 19-609, looked up)
Alpha-fetoprotein: RTLHRNEYGIASILDSYQCTAEISLADLATIFFAQFVQEATYKEVSKMVKDALTAIEKPTGDEQSSGCLENQLPAFLEELCHEKEILEKYGHSDCCSQSEEGRHNCFLAHKKPTPASIPLFQVPEPVTSCEAYEEDRETFMNKFIYEIARRHPFLYAPTILLWAARYDKIIPSCCKAENAVECFQTKAATVTKELRESSLLNQHACAVMKNFGTRTFQAITVTKLSQKFTKVNFTEIQKLVLDVAHVHEHCCRGDVLDCLQDGEKIMSYICSQQDTLSNKITECCKLTTLERGQCIIHAENDEKPEGLSPNLNRFLGDRDFNQFSSGEKNIFLASFVHEYSRRHPQLAVSVILRVAKGYQELLEKCFQTENPLECQDKGEEELQKYIQESQALAKRSCGLFQKLGEYYLQNAFLVAYTKKAPQLTSSELMAITRKMAATAATCCQLSEDKLLACGEGAADIIIGHLCIRHEMTPVNPGVGQCCTSSYANRRPCFSSLVVDETYVPPAFSDDKFIFHKDLCQAQGVALQTMKQEFLINLVKQKPQITEEQLEAVIADFSGLLEKCCQGQEQEVCFAEEGQKLISKTRAALGV
halflife [4]: 72 to 120 h

B3: HAFP: human alpha-fetoprotein (protein, UniProt P02771 19-609, looked up)
Alpha-fetoprotein: RTLHRNEYGIASILDSYQCTAEISLADLATIFFAQFVQEATYKEVSKMVKDALTAIEKPTGDEQSSGCLENQLPAFLEELCHEKEILEKYGHSDCCSQSEEGRHNCFLAHKKPTPASIPLFQVPEPVTSCEAYEEDRETFMNKFIYEIARRHPFLYAPTILLWAARYDKIIPSCCKAENAVECFQTKAATVTKELRESSLLNQHACAVMKNFGTRTFQAITVTKLSQKFTKVNFTEIQKLVLDVAHVHEHCCRGDVLDCLQDGEKIMSYICSQQDTLSNKITECCKLTTLERGQCIIHAENDEKPEGLSPNLNRFLGDRDFNQFSSGEKNIFLASFVHEYSRRHPQLAVSVILRVAKGYQELLEKCFQTENPLECQDKGEEELQKYIQESQALAKRSCGLFQKLGEYYLQNAFLVAYTKKAPQLTSSELMAITRKMAATAATCCQLSEDKLLACGEGAADIIIGHLCIRHEMTPVNPGVGQCCTSSYANRRPCFSSLVVDETYVPPAFSDDKFIFHKDLCQAQGVALQTMKQEFLINLVKQKPQITEEQLEAVIADFSGLLEKCCQGQEQEVCFAEEGQKLISKTRAALGV
Anticancer activity (AFP-mediated delivery of apoptosis-inducing agent bound to cancer cells) (cancer cells [5]): Yes
